Assay: label from the status in PepcDB records

Sequence | protein production
MAEWSKAPDSSSGLRKRAWIRPWQREHMTIESVDHETRSMTQRFTVPEFFEGYKMITSTTKVNDSAIGLYSLVDISVEYDKTGPEIKDLDQVQFLVDYINELVLRTGGQLLRRLK | failed
MKNDTAALAADIVDFWKKAGPDKWFDKDAAFDNHFHDRFRDAHFAAARRELDGWLEGAESSLALMLLLDQFPRNCFRGTAHMYATDPLARFFADEAIRRGHDQAVSEDLRVFFYLPFSHAEDIAAQQRACDLNQPLGGLYLHHAEEHRDIVERFGRFPHRNGILLRETTPEERQYLEEGGFSG | not failed
MNTVPLKPQRLLSLDVFRGMTIVLMIFVNGQAAIDPYPIFEHVDWNGCTLADLVFPFFLFIVGLTSVISLKNQMERKAKTSLYSAIIERSVVLFLLGLFLNVFPHPIEFDSIRIYGILQRIAVCYLISAFIYLNTSIKTQFFIFLVLLLGYWIIMTQVPVPGYGANQLTKDGSWVSYFDQLFFSASHLYEKTYDPEGFLSTFTSIATTLSGVLAGSLLISPCNQFKKFYLLAGIGLLFLLLGWLWNMSFPINKNLWTSSYVLWTSGLALLAFAFCYLLIDRFGVKKWSVFFKVFGMNALFAFVFHVLLLKLQYAFKITTPDGSKMVLISYLKDYFFGGFSNHNAALLYSICFLFLNFLVVLILYKRNVFIRI | failed
MEIAVERVFTKEILKRAVNLFHVTVEEKPLGDFENYIFKAKGDNDEDYVLRLTHSSHRSKQEVEAELDFLRYVAENGAKVAGPLYSTSRNLVEEIVAEDGTFFFASLFIYAKGEQVKGAESPYWGDAYFEAWGKAIGQLHRLTMDYPKTDYRDTWEEDESGIVNELEDGQVKEIAAVLMDEIKALPVERETFGLMHGDIHQGNFHYDGKELTIFDFDDAAYNYFIHDLAMVLYYSVLFTPWTAEEKTDFARKQLQVLRKGYEYEHRLADSWYESLPLFLRLRDIGLYGTLQKKFKGKDMPDNFLKLSEELYERIIKREAIVNI | failed
MRRENTKSNIDFKSIFDSLPDLYLLLDRDFNIVGVSDAYLQATMVSRKQILGKNVFDAFPDNPNDPKATGAKNLYASLLRVLKNKSADTMAIQKYDIQRPADRGGGFEERYWSPINTPVLGADQEVEYIIHRVEDVT | failed
MTELAQLQASAEQAAALLKAMSHPKRLLILCMLSGSPGTSAGELTRITGLSASATSQHLARMRDEGLIDSQRDAQRILYSIKNEAVNAIIATLKNVYCP | not failed
MLLQKSKVLVLNASYEPLSICDARNAVLLLFCGKAMMVASHPEHRIRTVTENFPLPSIVRLMVYVRIDYRGAVLNRKNLFRRDGFRCQYCGCKDGSLTVDHVMPKSRGGEDTWENLITACKSCNTKKGNRTPSEAGMAMLNKPCRPSNITLMRQHYRSISDEWKPYLFMS | failed
MGMAAESQFHVLAVDDSLFDRKLIERLLQKSSCQVTTVDSGSKALEFLGLRQSTDSNDPNAFSKAPVNHQVVEVNLIITDYCMPGMTGYDLLKKVKESSAFRDIPVVIMSSENVPARISRCLEEGAEEFFLKPVRLADLNKLKPHMMKTKLKNQKLEEIETTSKVENGVPTAVADPEIKDSTNIEIEILPLQQDLLLVQQEEQTLSINNKRKSVEEGISTDRARPRFDGIATAV | failed
MNILNNKNKRTSIFKALALCLFAAVSFTFVSCDDDMDIQQSYPFTVETMPVPNKVTKGQTVEIRCELKKTGDFANTLYTIRYFQFEGEGTLKMDNGITFLPNDRYLLENEKFRLYYTAQGDEAHNFIVVVEDNFGNSYELEFDFNNRNVKDDGVITVVPIGNFKPLTR | failed
MNTVDEDIKFKEVPGITNILLLSSDARPGEDVSRSDSIMILTIDNINKKLKVTSLMRDMLVKIDGHGEEKLNHAFAYGGPTKTIETIQNNFGIKLNNYVIVDFNAFVKVIDAINGIEVTVKDYELDELNKYILDGGGSEEDLLPSPGTYNLNGYQALSYARIRKVGNGEYERTERQRAVLQIALEKVKDMSTVKLVSLLNELFPYVKTNISLGNAMDYGFTALNVGKKCNFEIEQFRVPLDSISKGGIINNKGWVFVIDKVETSKALQEFIFNDNKNYEPDTSNFDSIIEQYFNDYDIKDDTTHPDYEYVPSINTNGNFEKPKNNSGNSSNNNSNNKVEKPSNQGNSVNSSNKPSNGSTSTGNNSTEKPNTSEKPSIPQETPTEKPLEHHHHHH | failed
ANGTVATAAIQPKKVKGVGFGDIFKDKPIKLRPRSIEVENDFLPVEKTIGKKLPATTATPDSSKTEMDSRTKSKDYCKVIFPYEAQNDDELTIKEGDIVTLINKDCIDVGWWEGELNGRRGVFPDNFVKLLPPDFEKEGNR | failed
MSHPHPELGRPPALPKGGLRVTPLGGLGEIGRNMTVFEYGGRLLIVDCGVLFPEEEQPGIDLILPDFTSIRDRLDDIEGIVLTHGHEDHIGGVPFLLREKPDIPLIGSKLTLALIEAKLQEHRIRPYTLEVAEGHRERVGPFDCEFVAVNHSIPDALAVAIRTPAGMVVHTGDFKMDQLPLDGRLTDLHAFARLSEEGIDLLLADSTNAEVPGFVPPERDISNVLRQVFANARKRIIVASFASHVHRIQQILDAAHEYGRRVAFVGRSMVRNMGIARDLGYLKVPPGLVVDVKTLDDLPDSEVVLVCTGSQGEPMAALSRMANRDHQIRIVNGDTVILASSLIPGNENAVYRVINGLTRWGANVVHKGNAKVHVSGHASAGELLYFYNICRPKNLMPVHGEWRHLRANAELGALTGVPHDRIVIAEDGVVVDLVEGKAKITGKVQAGYVYVDGLSVGDVGEPALKDRKILGDEGIISVFVVMDSSTGKITGGPHVQARGSGIEDSAFAAVLPKVTEALERSAQDGVVEPHQMQQLIRRTLGKWVSDTYRRRPMILPVVVEV | failed
MGPERHLSGAPARMATVVLGGDTMGPERIFPNQTEELGHQGPSEGTGDWSSEEPEEEQEETGSGPAGYSYQPLNQDPEQEEVELAPVGDGDVVADIQDRIQALGLHLPDPPLESEDEDEEGATALNNHSSIPMDPEHVELVKRTMAGVSLPAPGVPAWAREISDAQWEDVVQKALQARQASPAWK | failed
MTFCFWMRDTCHQRRRADIGSANADRYWEEDMTGTPRLLESRWDDAYAQTLDEPGKLLYRSNLLGADKRITNYGGGNTSAKVLEIDPLTGEKVRVMWVKGSGGDVGTIKLDGFATLYLEKLEALKGIYKGVEDEDRMVGFLPHCTFNLNPRAASIDTPLHGFVPFDHVDHMHPDAIIAIAASKNSKELTQQIFGDDIGWLPWRRPGFQLGLDLEAFVKANPTAKGVVLESHGLFTWDDDAKACYELTLAIINKAIEWFAAETEGKTIFGGALAKSLPVAERRAIAARLMPEIRGRIGREERKLGHFDDQDAVLEFVNSKDLKPLGNLGTSCPDHFLRTKIRPLILDLDTAKPDVDALTAGLDKALEAYRADYSRYYEACRHDNSPKMRDPNPVIFLIPGVGMLSFAKDKATARIAGEFYVNAINVMRGASTVSEYQGLPEQEAFDIEYWLLEEAKLQRMPKPKSLAGRVAFVTGGAGGIGRATAERLADEGACVVLADIDEAALEAAKGDFVKRYSGDAVRTVKLDVTQEDDVISAFAEASVEFGGVDILVSNAGIASSAPVEDTTLAMWNKNIDILATGYFLVSREAFRLLRRQNLGGNIVFVASKNGLASSPNASAYCTAKAAEIHLARCLALEGAEAGIRVNTVNPDAVLRGSKIWNGEWREQRAASSKIEVTDLEEHYRKRSMLKLNVFPEDIAEAIYFLASDASAKSTGNIINVDAGNAQSFTR | failed
MRDYSELEIFEGNPLDKWNDIIFHASKKLSKKELERLLELLALLETFIEKEDLEEKFESFAKALRIDEELQQKIESRKTDIVIQSMANILSGNE | not failed
MVRGDAVIVQAALQDGHWSGRADVLRRVEIPSGLGAWSSVVEDKKQALDLVDRVLSKNPASASAHRTKGAILLFGHPEEAMAEYDAALEIDPNNPAVYAAKTITLIVTGRAREAFSPLQLAHCYVCFGHCARVAEARCSIRTQGAGLRRVALLARSRT | failed
MGILDKVKNLLSQNADKVETVINKAGEFVDEQTQGNYSDAIHKLHDAASNVVGMSDQQS | not failed
MRYFSTDSPEVKTIVAQDSRLFQFIEIAGEVQLPTKPNPFQSLVSSIVEQQLSIKAASAIYGRVEQLVGGALEKPEQLYRVSDEALRQAGVSKRKIEYIRHVCEHVESGRLDFTELEGAEATTVIEKLTAIKGIGQWTAEMFMMFSLGRLDVLSVGDVGLQRGAKWLYGNGEGDGKKLLIYHGKAWAPYETVACLYLWKAAGTFAEEYRSLEELLHHGNQC | not failed
MAAVSPAAAARSAAAAVRDGGEMVRRMTPQDLDRIAQAVAEAEKTTAGEIFCVLTPEVSDYRETPLVWAAASALVLPAGALLAGFRPEMLTRLFGGWSVGHQAAHDGAILSALSTYIVLQLVVFVVAALVVSIPPVRRALTPGALKTARVKRAAMEQFLSHGLHVTRDRTGVLIFAALAEHRVEVIADEGIYKAAPNAVWNEVVADLVAGLKRGKIADGFVAAVARTGGILAAHVPPRGDDRNELSDGLTILPRR | failed
MIYLRKANERGHANHGWLDSWHTFSFANYYDPNFMGFSALRVINDDVIEAGQGFGTHPHKDMEILTYVLEGTVEHQDSMGNKEQVPAGEFQIMSAGTGIRHSEYNPSSTERLHLYQIWIMPEENGITPRYEQRRFDAVQGKQLVLSPDARDGSLKVHQDMELYRWALLKDEQSVHQIAAERRVWIQVVKGNVTINGVKASTSDGLAIWDEQAISIHADSDSEVLLFDLPPV | not failed
AIAAELGLNEHHQNEVINYMRFARSKRGLRLKTVDSCFQDLKESRLVEDTFTIDEVSEVLNGLQAVVHSEVESELINTAYTNVLLLRQLFAQAEKWYLKLQTDISELENQELLEQVAEFEKAEITSSNKKPILDVTKPKLAPLNEGGTAELLNEEILRLQEENEKLKSRLKTIEIQATNALDEKSKLEKALQDLQLDQGNQKDFIKAQDLSNLENTVAALKSEFQKTLNDKTENQKSLEENLATAKHDLLRVREQLHMAEKELEKKFQQTAAYRNMKEILTKKNDQIKDLRKRLAQYEPED | failed
MTMSPSQDQTENTDMLTEIAILYYQEGATQEEISKKFGLSRAKVGRMLRKAREEGIVEITVKFHPVYSVQLEQKLVEKFNLKRALISLDQPNTNEQRKQVAALVSSYLNNNLQEGMAVAVGQGQNVAAVADHAGIVTQRNARFVSAIGGTHRSGDIINADHICRRLAKKYGGSSETLYAPAYVNDPSLRSAFMEHATIKETLSQARKAEFALVGIGDMDENSHMVKLGFFTPKEFVEARLNDGIVGDIGGFDFFKLDGTDADTLMRGRVIGLEMEDLRQIPNVVAMASESRKALSIMGALRTGVIDVLATSVSCAMALLNLAENEE | not failed
MQQHSSKTAYVYSDKLLQYRFHDQHPFNQMRLKLTTELLLNANLLSPEQIVQPRIATGDELMLIHKYDYVEAIKHASHGIISEDEAKKYGLNDEENGQFKHMHRHSATIVGGALTLADLIMSGKVLNGCHLGGGLHHAQPGRASGFCIYNDIAITAQYIAKEYNQRVLIIDTDAHHGDGTQWSFYADNHVTTYSIHETGKFLFPGSGHYTERGEDIGYGHTVNVPLEPYTEDASFLECFKLTVEPVVKSFKPDIILSVNGVDIHYRDPLTHLNCTLHSLYEIPYFVKYLADSYTNGKVIMFGGGGYNIWRVVPRAWSHVFLSLIDQPIQSGYLPLEWINKWKHYSSELLPKRWEDRLNDYTYVPRTKEISEKNKKLALHIASWYESTRQLEHHHHHH | failed
MNEYLQAVLMILLTIVLYYVSKKIQDKYNNPLLNPALIASIAIIIVLLVCGVSYKGYMKGGTWINHVLNATVVCLAYPLYQNKKKIKKYLTIIFTSVLTGVVLNFVLVFTTLKIFGYSKDTIVTLLPRSITAAVGIEVSQELGGTDTITVLFIITTGLIGSILGSMLLRMGGFKSSIARGLTYGNASHAFGTAKALELDIESGAFSSIGMILTAVISSVLIPVLILLFY | failed
HVSDLDWLMSGLVQRVPHTTSAVLLSCDGLVKSVHGLDPDSADHMAALASGLYSLGRSAGIRFGDGGDVRQVVVELDSTLLFVSTAGSGTCLAVLAGREADAAVLGYEMAMLVKSVRPYLMTAPRQ | not failed

From a protein production outcome set (Wang et al. 2014)
